{"source": "patent US20220265770A1", "about": "“TREATING NEURODEGENERATIVE DISEASES WITH PROGRANULIN” (NEURODYN, INC., priority 2008, published 2022)", "molecules": {"B1": {"name": "Progranulin: growth factor-like protein; human progranulin SEQ ID NO: 2 (protein, listed as Homo sapiens)", "chain": "MWTLVSWVALTAGLVAGTRCPDGQFCPVACCLDPGGASYSCCRPLLDKWPTTLSRHLGGPCQVDAHCSAGHSCIFTVSGTSSCCPFPEAVACGDGHHCCPRGFHCSADGRSCFQRSGNNSVGAIQCPDSQFECPDFSTCCVMVDGSWGCCPMPQASCCEDRVHCCPHGAFCDLVHTRCITPTGTHPLAKKLPAQRTNRAVALSSSVMCPDARSRCPDGSTCCELPSGKYGCCPMPNATCCSDHLHCCPQDTVCDLIQSKCLSKENATTDLLTKLPAHTVGDVKCDMEVSCPDGYTCCRLQSGAWGCCPFTQAVCCEDHIHCCPAGFTCDTQKGTCEQGPHQVPWMEKAPAHLSLPDPQALKRDVPCDNVSSCPSSDTCCQLTSGEWGCCPIPEAVCCSDHQHCCPQGYTCVAEGQCQRGSEIVAGLEKMPARRASLSHPRDIGCDQHTSCPVGQTCCPSLGGSWACCQLPHAVCCEDRQHCCPAGYTCNVKARSCEKEVVSAQPATFLARSPHVGVKDVECGEGHFCHDNQTCCRDNRQGWACCPYRQGVCCADRRHCCPAGFRCAARGTKCLRREAPRWDAPLRDPALRQLL"}}, "key": {"rat motor neurons": {"tested_on": "rat motor neurons", "conditions": "literature (Van Damme et al.); cited from earlier work"}, "NSC-34 cells [1]": {"tested_on": "NSC-34 cells", "assay": "BSSG-induced toxicity in NSC-34 and NSC-34-hPGRN cells (MTT)", "format": "cell-based", "protocol": "Normal NSC-34 and a stable NSC-34 transfectant that over expressed human PGRN (NSC-34-hPGRN) NCS34 were maintained in culture using DMEM supplemented with 5% (v/v) fetal calf serum (FCS). Cells were aliquoted in 96-well plates at a density of 8,000 cells/well in 200 uL of DMEM 5% FCS.d After two hours the neurotoxin Beta-sitosteryl glucoside (BSSG) was added at concentrations of 0, 100, 250, 500, 1000 and 2500 ng/mL with a final culture volume of 250 uL along with 0.1% (v/v) DMSO throughout. As a negative control for cell proliferation/survival, a series of wells were washed and media replaced with DMEM containing no FCS. Following 72 hours cell viability was measured using the MTT assay (Vybrant MTT Cell proliferation Assay; Invitrogen) according to manufacturer's instructions.\nTo determine if PGRN was capable of protecting NSC-34 cells against BSSG neurotoxicity a stable transfectant was developed to over express human PGRN constitutively."}, "PC12 cells": {"tested_on": "PC12 cells", "assay": "Protection against MPTP toxicity in PC12 cells (MTT)", "format": "cell-based", "conditions": "4 nM progranulin 24 h pretreatment; 0-1000 μM MPTP 24 h", "protocol": "PC12 cells were grown on collagen-coated 96-well plates, in Dulbecco's minimal essential medium (DMEM) in the presence of 10% fetal calf serum (FCS) supplemented with glutamine, penicillin and streptomycin. One day after plating (at 60-70% confluence, 40,000 cells/well), the growth medium was replaced by low-serum (2% FCS) medium with 4 nM progranulin (PGRN+) or without progranulin (PGRN−) (FIG. 19). […] 43(5-6):155-158 (2007)]"}, "NSC-34 cells [2]": {"tested_on": "NSC-34 cells", "assay": "NSC-34 serum deprivation with hPGRN protein (Alamar Blue)", "format": "cell-based", "conditions": "hPGRN 100 ng/ml, Day 4, Alamar Blue", "protocol": "Normal NSC-34 cells were maintained in culture using DMEM supplemented with 5% (v/v) fetal calf serum (FCS). Cells were aliquoted in 96-well plates at a density of 6,000 cells/well in 200 uL of DMEM 5% FCS. After 2 hours of culture (to ensure cell adhesion) media was removed, cells washed 1× with PBS and DMEM serum free medium with or without hPGRN (100 ng/ml) added to the cells. Following one and four days of culture remaining metabolically active cells were detected using the Alamar Blue® methodology (Molecular Probes/Invitrogen) following the manufacturer's instructions."}}, "data": [{"molecule": "B1", "values": [{"measurement": "survival of rat motor neurons under serum deprivation", "setting": "rat motor neurons", "result": "increased survival of rat motor neurons"}, {"measurement": "cell survival in serum free cultures (MTT)", "setting": "NSC-34 cells [1]; PGRN over expression, 72 hours, no FCS", "result": "increased cell survival"}, {"measurement": "protection against BSSG neurotoxicity (MTT)", "setting": "NSC-34 cells [1]; stable transfectant over expressing human PGRN, 72 hour, 1000 and 2500 ng/mL BSSG", "result": "protected NSC-34 cells"}, {"measurement": "cell viability against MPTP (MTT)", "setting": "PC12 cells", "result": "protective effect"}, {"measurement": "increase in cell survival following serum starvation", "setting": "NSC-34 cells [2]", "result": 2.5, "unit": "fold"}]}]}
